Test results published in the RNAGym collection of RNA variant scans (doi:10.1073/pnas.2313332121).
This sample holds only a part of the variants without activity.

B1: TPR 5TU (parent)
chain: GGAUCUUCUCGAUCUAACAAAAAAGACAAAUCUGCCACAAAGCUUGAGAGCAUCUUCGGAUGCAGAGGCGGCAGCCUUCGGUGGCGCGAUAGCGCCAACGUUCUCAACUAUGACACGCAAAACGCGUGCUCCGUUGAAUGGAGUUUAUCAUG

Variants of: B1
Experiment: polymerase ribozyme fitness, log enrichment relative to wild type (log ratio); higher = more active; in vitro selection for triplet polymerase activity
Method in brief: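 Streptavidin-bead capture of gel-excised extended constructs, followed by RT-PCR, closed a single triplicate in vitro selection round. That round began by annealing PCR-built, transcribed mutant libraries of each subunit of a heterodimeric triplet polymerase ribozyme with a biotinylated primer, the partner subunit and triplets, then incubating them frozen at −7 °C. After Illumina sequencing of inputs and outputs, genotypes needed ≥10 input reads and ≥1 read per output. Fitness is the base-2 logarithm of genotype enrichment over wild-type enrichment, using inverse-variance-weighted replicate averages.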

Variant	polymerase ribozyme fitness (log ratio)
GGAUCUUCUCGAUCUAACAAAAAAGACAAAUCUGCCACAAAGCUUGGGAGCAUCUACGGAUGCAGAGGCGGCAGCCUUCGGUGGCGCGAUAGCGCCAACGUUCUCAACUAUGACACGCAAAACGCGUGCUCCGGUGAAUGGAGUUUAUCAUG [A47G U56A U134G]	-2.17
GGAUCUUCUCGAUCUAACAAAAAAGACAAAUCUGCCACAAAGCUUGGGAGCAUCUUCGGAUGCAGAGGCGGCAGCCUACGUUGGCCCGAUAGCGCCAACGUUCUCAACUAUGACACGCAAAACGCGGGCUCCGUUGACUGGAGUUUAUCAUG [A47G U78A G81U G86C U127G A138C]	≤ -4.2
GGAUCUUCUCGAUCUAACAAAAAAGACAAAUCUGCCACAAAGCUUGUGAGCAUUUUCGGAUGCAGAGGCGGCAGCCUUCGGUGGCGCGAUAGCGCCAACGUUCUCAACUAUGAUACGCAAAACGCGUGCUCCGUUGAAUGGAGUUUAUCAUG [A47U C54U C114U]	-2.94
GGAUCUUCUCGAUCUAACAAAAAAGACAAAUCUGCCACAAAGCUUGUGGGCAUCUUCGGAUGCAGAGGCGGCAGCCUUCGGUGGCGCGAUAGCGCCAACGUUCUCAACUAUGACACGCAAAACGCGUGCUCCGUUGAAUGAAGUAUAUCAUG [A47U A49G G141A U145A]	≤ -4.2
GGAUCUUCUCGAUCUAACAAAAAAGACAAAUCUGCCACAAAGCUUGUGAGCAUCUUCGGCUGCAGAGGCGGCAGCCUUCGGUGGCGCGAUAGCGCCAACGUUCUCAACUAUGACACGCAAAACGUGUGCUCCGUUGAAUGGAGUUUAUCAUG [A47U A60C C125U]	-2.64
GGAUCUUCUCGAUCUAACAAAAAAGACAAAUCUGCCACAAAGCUUGGGAGCAUCUUCGGAUGCAGAGGCGGCAGCCUUCGGUGGCGCGAUAGCGCCAACGUCCUCAACUAUGACACGCAAAACGCGUGCUCCGUUGAAUGGCGUUUAUUAUG [A47G U102C A142C C149U]	≤ -4.2
GGAUCUUCUCGAUCUAACAAAAAAGACAAAUCUGCCACAAAGCUUGUGAGUCGCUUCGGAAGCUGAGGCGGCAGCUUUCGGUUGCGCGAUAGCGCCAACGUUCUCAACUAUGACACGCAAAACGCGUGCUCCGUUGAAUGGAGUUCAUCAUG [A47U C51U A52C U53G U61A A64U C76U G83U U146C]	≤ -4.2
GGAUCUUCUCGAUCUAACAAAAAAGACAAAUCUGCCACAAAGCUUGUGAGCAUCUUCGGAUGCGGAAGCGGCAGCCUUCGGUGGCGCGAUAGCGCCAACGUUCUCAACUAUGACACGCAAAACGCGUGCUCCGUUGAAUGGAGUUUAUCAUG [A47U A64G G67A]	≤ -4.2
GGAUCUUCUCGAUCUAACAAAAAAGACAAAUCUGCCACAAAGCUUGUGAGCAUCUUCGGAUGCAGAGGCGGCAGCCUUCGGUGGCGCGAUAGCGCCAACGUUCUCAACUAUGACACGCAAUACGCGUGCUCCGUUGAAUGGAGUUUCUUAUG [A47U A121U A147C C149U]	-3.04
GGAUCUUCUCGAUCUAACAAAAAAGACAAAUCUGCCACAAAGCUUGUGAGCAUCUUCGGCUGCAGAGGCGGCAGCCUUCGGUGGCGCGAUAGCGCCAACGUUGUCAGCUAUGACACGCAAAACGCGUGCUCCGUUGAAUGGAGUUUAUCAUG [A47U A60C C103G A107G]	≤ -4.2
GGAUCUUCUCGAUCUAACAAAAAAGACAAAUCUGCCACAAAGCUUGUGAGCAUUUUCGGAUGCAGAGGCGGCAGCCUUCGGUGGCGCGAUAGUGCCAACGUUCUCAACUAUGACACGCAAAACGCGUGCUCCGUUGAAUGGAGUUUAUCAUG [A47U C54U C93U]	-2.08
GGAUCUUCUCGAUCUAACAAAAAAGACAAAUCUGCCACAAAGCUUGUGAGCAUCUUCGGAUGCAGAGGCGGCAGCCUUCGGUGGCGCGGUAGCGCCAACGUUCUCAACUAUGACAUGCAAAACGCGUGCUCCUUUGACUGGAGUUUAUCAUG [A47U A89G C116U G133U A138C]	-4.12
GGAUCUUCUCGAUCUAACAAAAAAGACAAAUCUGCCACAAAGCUUGUGAGCAUAUUCGGAUGCAGAGGCGGCAGCCUUCGGUGGCGCGAUAGCGCCAACGUUCUCAACUAUGACACGCAAAACGCGUGCUCCGUUGAAUGGAGUUUAUCAUG [A47U C54A]	-1.93
GGAUCUUCUCGAUCUAACAAAAAAGACAAAUCUGCCACAAAGCUUGGGAGCAUCUUCGGAUGCAGAGGCGGCAGCCUUCGGUGGCGCGAAAGCGACAGCGUUCUCAACUAUGACACGCAAAACGCGUGCUCCGUUGAUUGGAGUUUCUCAUG [A47G U90A C95A A98G A138U A147C]	≤ -4.2
GGAUCUUCUCGAUCUAACAAAAAAGACAAAUCUGCCACAAAGCUUGUGAGCAUCUUCGGAUGCAGAGGCGGCUGCCUUCGGUGGCGCGAUAGCGCCAACGUUCUCAACUAUGACACGCAAAACGCGUGCUCCGUUGAAUGGAGUUUCUCAUG [A47U A73U A147C]	-2.13
GGAUCUUCUCGAUCUAACAAAAAAGACAAAUCUGCCACAAAGCUUGUGAGCUUCUUCGGAUGCAGAGGCGGCAGCCUUCGGUGGCGCGAUAGAGCCAACGUUCUCAACUAUGACACGCAAAACGGGUGCUCCGUCGAAUGGAGUUUAUCAUG [A47U A52U C93A C125G U135C]	≤ -4.2
GGAUCUUCUCGAUCUAACAAAAAAGACAAAUCUGCCACAAAGCUUGUGAGCAUCUUCGGAUGCAGAGGCGGCAGCCUUCGGUGGCGCGAUAGCGCCGGCGUUCUCAACUAUGACAUGCAAAACGCGUGCUCCGUUGAAUGGAGUUUAUCUUG [A47U A97G A98G C116U A150U]	0.886
GGAUCUUCUCGAUCUAACAAAAAAGACAAAUCUGCCACAAAGCUUGGGAGCAUCUUCGGAAGCAGAGGCGGCAGCCUUCGGUGGCGCGAUAGCGCCAACGUUCUCAACUAUGACACGCAAAACGCGUGCUCCGUUGAAUGGAGUUUAUCAUG [A47G U61A]	-1.41
GGAUCUUCUCGAUCUAACAAAAAAGACAAAUCUGCCACAAAGCUUGUGAGAAUCUUCAGAUGCAGAGGCGGCAGCCUUCAGUAGCGCGAUAGCGCCAACGUUUUCAACUAUGACACGCAAAACGCGUGCUCCGUUGAAUGGAGUUUAUCAUG [A47U C51A G58A G80A G83A C103U]	≤ -4.2
